Target: TRAF6 dm (amino acids 1-274) fused to the GAL4 DNA binding domain (pGBT9-TRAF6 dm) (yeast; human) (UniProt P04386)
Assay: cell-based or functional assay

recombinant TRAF6-inhibiting protein fused with the transcription activation domain of GAL4 (full length cDNA in pGAD424, expressed in yeast Y190) (from UniProt Q8TD23 1-568)
β-galactosidase activity titer (liquid β-galactosidase assay, yeast two-hybrid): 21 unit

From patent US20040109854A1
